In article PMC13438699:

Target: A/Solomon Islands/3/2006 (H1N1) HA (influenza A virus A/Solomon Islands/3/2006 (H1N1))
Assay: cryo-EM structure

A/Solomon Islands/3/2006 (H1N1) HA (natural protein)
stoichiometry N: 3
